Measured values: article PMC4654454 (ACS chemical biology, 2015)

Target: nucleosome core particle labeled with H4Kc20me2
Test: native gel or EMSA

Substance: human Origin Recognition Complex subunit 1 BAH domain, R105Q mutant (from UniProt Q13415 45-171) (domain or fragment)
- fold reduction of affinity against wild type hORC1BAH: > 2 fold
